Experimental data from IntAct's records for PubMed 15908944.

Molecular target: forh_dicdi forH (UniProt Q54N00)
Sequence (Q54N00 whole entry): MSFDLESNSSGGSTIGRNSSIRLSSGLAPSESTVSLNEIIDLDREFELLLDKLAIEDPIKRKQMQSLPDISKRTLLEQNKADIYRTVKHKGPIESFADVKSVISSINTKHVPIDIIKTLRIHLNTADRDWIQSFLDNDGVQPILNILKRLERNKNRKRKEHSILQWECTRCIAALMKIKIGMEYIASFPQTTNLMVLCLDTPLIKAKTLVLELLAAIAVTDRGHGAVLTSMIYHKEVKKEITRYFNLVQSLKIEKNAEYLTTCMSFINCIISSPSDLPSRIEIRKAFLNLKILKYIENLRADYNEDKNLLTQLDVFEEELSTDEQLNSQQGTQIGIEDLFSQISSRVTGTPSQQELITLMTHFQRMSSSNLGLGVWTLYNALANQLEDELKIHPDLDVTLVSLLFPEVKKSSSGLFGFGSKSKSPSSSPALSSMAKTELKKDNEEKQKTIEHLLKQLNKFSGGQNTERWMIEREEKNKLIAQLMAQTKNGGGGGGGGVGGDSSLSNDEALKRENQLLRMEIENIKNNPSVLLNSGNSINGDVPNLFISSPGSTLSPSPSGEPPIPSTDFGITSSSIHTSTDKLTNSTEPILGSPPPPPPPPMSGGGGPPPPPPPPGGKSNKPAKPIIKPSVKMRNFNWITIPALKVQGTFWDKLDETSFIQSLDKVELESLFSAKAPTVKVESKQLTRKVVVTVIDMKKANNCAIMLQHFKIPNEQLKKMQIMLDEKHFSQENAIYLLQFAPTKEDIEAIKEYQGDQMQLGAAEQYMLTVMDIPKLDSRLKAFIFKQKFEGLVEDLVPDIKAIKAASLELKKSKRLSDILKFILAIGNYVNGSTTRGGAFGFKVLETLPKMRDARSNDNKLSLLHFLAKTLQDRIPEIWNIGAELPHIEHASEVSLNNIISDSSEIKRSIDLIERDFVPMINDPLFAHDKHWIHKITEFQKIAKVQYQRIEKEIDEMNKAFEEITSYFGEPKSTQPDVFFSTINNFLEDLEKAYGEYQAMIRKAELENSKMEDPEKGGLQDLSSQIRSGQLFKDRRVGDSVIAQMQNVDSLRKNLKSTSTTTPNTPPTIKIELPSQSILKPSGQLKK

With “Rho-related protein rac1A (Dictyostelium discoideum (Slime mold)), P34144 G12V” the “effect of a mutation on the interaction” value was “decreasing interaction”.

For “Rho-related protein rac1A (Dictyostelium discoideum (Slime mold)), P34144 T17N”, the “effect of a mutation on the interaction” value was “disrupting interaction”.
